Data as given in patent EP2103936A1.

Assays:
[1] = molecular target: bt-MalE (Escherichia coli) [MBP: P0AEX9]; test: Biacore kinetics, bt-MalE on SA chip, buffer M2 (no reducing agent), heterogeneous analyte model, population 2 (kon2), taken as the non-coupled molecules of the R23ANBD preparation
[2] = molecular target: bt-MalE (Escherichia coli) [MBP: P0AEX9]; test: Biacore kinetics, bt-MalE on streptavidin SA chip, buffer M3 (5 mM DTT), 25 °C, Langmuir model
[3] = molecular target: bt-MalE (Escherichia coli) [MBP: P0AEX9]; test: Biacore kinetics, bt-MalE on SA chip, buffer M2 (no reducing agent), heterogeneous analyte model, population 2 (kon2), taken as the non-coupled molecules of the N45ANBD preparation
[4] = molecular target: bt-MalE (Escherichia coli) [MBP: P0AEX9]; test: Biacore kinetics, bt-MalE on SA chip, buffer M2 (no reducing agent), heterogeneous analyte model, population 2 (kon2), taken as the non-coupled molecules of the T46ANBD preparation, possibly dimeric
[5] = molecular target: bt-MalE (Escherichia coli) [MBP: P0AEX9]; test: Biacore kinetics, bt-MalE on SA chip, buffer M2 (no reducing agent), heterogeneous analyte model, population 2 (kon2), taken as the non-coupled molecules of the L53ANBD preparation

| kon [1] | kon [2] | kon [3] | kon [4] | kon [5] | Substance |
| --- | --- | --- | --- | --- | --- |
| 430000 M⁻¹ s⁻¹ | 410000 M⁻¹ s⁻¹ |  |  |  | DarpOff7(R23C) (designed binder) |
|  | 290000 M⁻¹ s⁻¹ | 240000 M⁻¹ s⁻¹ |  |  | DarpOff7(N45C) (designed binder) |
|  | 170000 M⁻¹ s⁻¹ |  | 18000 M⁻¹ s⁻¹ |  | DarpOff7(T46C) (designed binder) |
|  | 370000 M⁻¹ s⁻¹ |  |  | 580000 M⁻¹ s⁻¹ | DarpOff7(L53C) (designed binder) |
